In patent US20090227507A1, “Angiotensin (1-7) Dosage Forms and Uses Thereof” (UNIVERSITY OF SOUTHERN CALIFORNIA, priority 2008, published 2009):

Assay: Hematology profile (CBC with differential, platelet count) in healthy men;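 on Platelet Count, Median Change from Baseline: Thousands of platelets per mm³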;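 on Platelet Count, Median: Thousands of platelets per mm³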
Assay type: in vivo, human
Description: Pharmacological Effect: The following evaluations (under efficacy and safety in the protocol) were performed: • Effects on the number of mature blood cells: • 1. CBC (with differential), platelet count, reticulocyte count. • Effects on early hematopoietic progenitor cells and mature lymphocyte subsets in the periphery: • 1. Flow cytometry to evaluate frequency of peripheral blood progenitor cells (eg, CD34^+) and lymphocyte subsets (eg, CD3, CD4, CD8) in peripheral blood. • 2. Collection of blood for later possible culture for progenitor cells (eg, colony forming units-granulocyte/macrophage [CFU-GM]) to evaluate potential effects on CD34^+ hematopoietic progenitor cells in peripheral blood. • 3.
The effect of USB003 on the number of mature blood cells was assessed by the complete blood count with differential, platelet and reticulocyte counts. The effects on early hematopoietic progenitor cells and mature lymphocyte subsets in the periphery were assessed by flow cytometry. In addition, blood was collected and processed to enable culture of progenitors at a later time.
Red blood cell (RBC) count, RBC indices, white blood cell count (WBC) with differential, reticulocyte count, platelet count, hemoglobin (Hb), hematocrit (Hct), plasma hemoglobin, peripheral flow cytometry, including CD34^+, flow cytometry for enumeration of CD3, CD4, and CD8 lymphocytes, and culture for progenitor cells in peripheral blood including colony-forming units-granulocyte/macrophage (CFU-GM).

[1] = 200 μg/kg, N = 9, baseline to Day 8
[2] = 200 μg/kg, N = 9, baseline to Day 20
[3] = 300 μg/kg, N = 8, baseline to Day 8

For Asp-Arg-Val-Tyr-Ile-His-Pro [USB003], the absolute neutrophil concentrations (200 ug/kg and 300 ug/kg, at 20 days) was “apparent dose-related increase”, the “shifts in eosinophils from high at baseline to normal” value (200 μg/kg dose group, Day 8 and Day 20, compared with placebo) was “notable number of subjects” and the “Absolute Eosinophils shift H-N, number of subjects” value (shortened to “Absolute Eosinophils shift H-N”) [1] was 1. For the same substance, the “Absolute Eosinophils shift L-N, number of subjects” value (“Absolute Eosinophils shift L-N” below) [1] was “— (“—” = 0)”, the “Absolute Eosinophils shift N-H, number of subjects” value (from here on “Absolute Eosinophils shift N-H”) [1] was “— (“—” = 0)” and the “Absolute Eosinophils shift N-L, number of subjects” value (shortened to “Absolute Eosinophils shift N-L”) [1] was “— (“—” = 0)”. For the same substance, the “Absolute Reticulocytes shift H-N, number of subjects” value (“Absolute Reticulocytes shift H-N” below) [1] was “— (“—” = 0)”, the “Absolute Reticulocytes shift L-N, number of subjects” value (“Absolute Reticulocytes shift L-N” below) [1] was “— (“—” = 0)” and the “Absolute Reticulocytes shift N-H, number of subjects” value (“Absolute Reticulocytes shift N-H” below) [1] was “— (“—” = 0)”. The “Absolute Reticulocytes shift N-L, number of subjects” value (“Absolute Reticulocytes shift N-L” below) [1] was “— (“—” = 0)”, the “Eosinophils shift H-N, number of subjects” value [1] was 3 and the “Eosinophils shift L-N, number of subjects” value [1] was “— (“—” = 0)”. The “Eosinophils shift N-H, number of subjects” value [1] was “— (“—” = 0)”, the “Eosinophils shift N-L, number of subjects” value [1] was “— (“—” = 0)” and the “Hematocrit shift H-N, number of subjects” value [1] was “— (“—” = 0)”. The “Hematocrit shift L-N, number of subjects” value [1] was “— (“—” = 0)”, the “Hematocrit shift N-H, number of subjects” value [1] was “— (“—” = 0)” and the “Hematocrit shift N-L, number of subjects” value [1] was “— (“—” = 0)”. For the same substance, the “Hemoglobin shift H-N, number of subjects” value [1] was “— (“—” = 0)”, the “Hemoglobin shift L-N, number of subjects” value [1] was “— (“—” = 0)” and the “Hemoglobin shift N-H, number of subjects” value [1] was “— (“—” = 0)”. The “Hemoglobin shift N-L, number of subjects” value [1] was “— (“—” = 0)”, the “Lymphocytes shift H-N, number of subjects” value [1] was 1 and the “Lymphocytes shift L-N, number of subjects” value [1] was 1. The “Lymphocytes shift N-H, number of subjects” value [1] was “— (“—” = 0)”, the “Lymphocytes shift N-L, number of subjects” value [1] was “— (“—” = 0)” and the “Plasma Hemoglobin shift H-N, number of subjects” value [1] was “— (“—” = 0)”. The “Plasma Hemoglobin shift L-N, number of subjects” value [1] was “— (“—” = 0)”, the “Plasma Hemoglobin shift N-H, number of subjects” value [1] was “— (“—” = 0)” and the “Plasma Hemoglobin shift N-L, number of subjects” value [1] was “— (“—” = 0)”. The “Platelet Count shift H-N, number of subjects” value [1] was “— (“—” = 0)”, the “Platelet Count shift L-N, number of subjects” value [1] was “— (“—” = 0)” and the “Platelet Count shift N-H, number of subjects” value [1] was 1. For the same substance, the “Platelet Count shift N-L, number of subjects” value [1] was “— (“—” = 0)”, the “RBC shift H-N, number of subjects” value [1] was “— (“—” = 0)” and the “RBC shift L-N, number of subjects” value [1] was “— (“—” = 0)”. For the same substance, the “RBC shift N-H, number of subjects” value [1] was “— (“—” = 0)”, the “RBC shift N-L, number of subjects” value [1] was “— (“—” = 0)” and the “Segmented Neutrophils shift H-N, number of subjects” value [1] was 1. For the same substance, the “Segmented Neutrophils shift L-N, number of subjects” value [1] was “— (“—” = 0)”, the “Segmented Neutrophils shift N-H, number of subjects” value [1] was “— (“—” = 0)” and the “Segmented Neutrophils shift N-L, number of subjects” value [1] was “— (“—” = 0)”. The “Absolute Eosinophils shift H-N” value [2] was “— (“—” = 0)”, the “Absolute Eosinophils shift L-N” value [2] was “— (“—” = 0)” and the “Absolute Eosinophils shift N-H” value [2] was 1. For the same substance, the “Absolute Eosinophils shift N-L” value [2] was “— (“—” = 0)”, the “Absolute Neutrophils shift H-N, number of subjects” value [2] was “— (“—” = 0)” and the “Absolute Neutrophils shift L-N, number of subjects” value [2] was “— (“—” = 0)”. For the same substance, the “Absolute Neutrophils shift N-H, number of subjects” value [2] was “— (“—” = 0)”, the “Absolute Neutrophils shift N-L, number of subjects” value [2] was “— (“—” = 0)” and the “Absolute Reticulocytes shift H-N” value [2] was “— (“—” = 0)”. For the same substance, the “Absolute Reticulocytes shift L-N” value [2] was “— (“—” = 0)”, the “Absolute Reticulocytes shift N-H” value [2] was 2 and the “Absolute Reticulocytes shift N-L” value [2] was “— (“—” = 0)”. The “Eosinophils shift H-N, number of subjects” value [2] was 2, the “Eosinophils shift L-N, number of subjects” value [2] was “— (“—” = 0)” and the “Eosinophils shift N-H, number of subjects” value [2] was “— (“—” = 0)”. For the same substance, the “Eosinophils shift N-L, number of subjects” value [2] was “— (“—” = 0)”, the “Hematocrit shift H-N, number of subjects” value [2] was “— (“—” = 0)” and the “Hematocrit shift L-N, number of subjects” value [2] was “— (“—” = 0)”. The “Hematocrit shift N-H, number of subjects” value [2] was “— (“—” = 0)”, the “Hematocrit shift N-L, number of subjects” value [2] was “— (“—” = 0)” and the “Hemoglobin shift H-N, number of subjects” value [2] was “— (“—” = 0)”. The “Hemoglobin shift L-N, number of subjects” value [2] was 1, the “Hemoglobin shift N-H, number of subjects” value [2] was “— (“—” = 0)” and the “Hemoglobin shift N-L, number of subjects” value [2] was 1. The “Lymphocytes shift H-N, number of subjects” value [2] was “— (“—” = 0)”, the “Lymphocytes shift L-N, number of subjects” value [2] was 1 and the “Lymphocytes shift N-H, number of subjects” value [2] was “— (“—” = 0)”. For the same substance, the “Lymphocytes shift N-L, number of subjects” value [2] was “— (“—” = 0)”, the “Monocytes shift H-N, number of subjects” value [2] was “— (“—” = 0)” and the “Monocytes shift L-N, number of subjects” value [2] was “— (“—” = 0)”. The “Monocytes shift N-H, number of subjects” value [2] was “— (“—” = 0)”, the “Monocytes shift N-L, number of subjects” value [2] was “— (“—” = 0)” and the “Plasma Hemoglobin shift H-N, number of subjects” value [2] was “— (“—” = 0)”. For the same substance, the “Plasma Hemoglobin shift L-N, number of subjects” value [2] was “— (“—” = 0)”, the “Plasma Hemoglobin shift N-H, number of subjects” value [2] was 2 and the “Plasma Hemoglobin shift N-L, number of subjects” value [2] was “— (“—” = 0)”. The “Platelet Count shift H-N, number of subjects” value [2] was “— (“—” = 0)”, the “Platelet Count shift L-N, number of subjects” value [2] was “— (“—” = 0)” and the “Platelet Count shift N-H, number of subjects” value [2] was 1. For the same substance, the “Platelet Count shift N-L, number of subjects” value [2] was “— (“—” = 0)”, the “RBC shift H-N, number of subjects” value [2] was “— (“—” = 0)” and the “RBC shift L-N, number of subjects” value [2] was “— (“—” = 0)”. For the same substance, the “RBC shift N-H, number of subjects” value [2] was “— (“—” = 0)”, the “RBC shift N-L, number of subjects” value [2] was “— (“—” = 0)” and the “RDW shift H-N, number of subjects” value [2] was “— (“—” = 0)”. The “RDW shift L-N, number of subjects” value [2] was “— (“—” = 0)”, the “RDW shift N-H, number of subjects” value [2] was 1 and the “RDW shift N-L, number of subjects” value [2] was “— (“—” = 0)”. The “Segmented Neutrophils shift H-N, number of subjects” value [2] was 1, the “Segmented Neutrophils shift L-N, number of subjects” value [2] was “— (“—” = 0)” and the “Segmented Neutrophils shift N-H, number of subjects” value [2] was “— (“—” = 0)”. The “Segmented Neutrophils shift N-L, number of subjects” value [2] was “— (“—” = 0)”, the “WBC shift H-N, number of subjects” value [2] was “— (“—” = 0)” and the “WBC shift L-N, number of subjects” value [2] was “— (“—” = 0)”. For the same substance, the “WBC shift N-H, number of subjects” value [2] was “— (“—” = 0)”, the “WBC shift N-L, number of subjects” value [2] was “— (“—” = 0)” and the “Absolute Neutrophils, Median” value (200 μg/kg, Baseline) was 3.00 thousands/mm^3. The “Hematocrit, Median” value (200 μg/kg, Baseline) was 46.50%, the “Hemoglobin, Median” value (200 μg/kg, Baseline) was 15.30 g/dL and the “Lymphocytes, Median” value (200 μg/kg, Baseline) was 35.80%. For the same substance, the “Platelet Count, Median” value (200 μg/kg, Baseline) was 263.0 thousands/mm^3, the “WBC, Median” value (200 μg/kg, Baseline) was 5.60 thousands/mm^3 and the “Absolute Neutrophils, Median” value (200 μg/kg, Day 8) was 3.60 thousands/mm^3. The “Absolute Neutrophils, Median Change from Baseline” value (200 μg/kg, Day 8) was 0.45 thousands/mm^3, the “Hematocrit, Median” value (200 μg/kg, Day 8) was 43.65% and the “Hematocrit, Median Change from Baseline” value (200 μg/kg, Day 8) was −1.65%. For the same substance, the “Hemoglobin, Median” value (200 μg/kg, Day 8) was 15.10 g/dL, the “Hemoglobin, Median Change from Baseline” value (200 μg/kg, Day 8) was -0.20 g/dL and the “Lymphocytes, Median” value (200 μg/kg, Day 8) was 32.40%. For the same substance, the “Lymphocytes, Median Change from Baseline” value (200 μg/kg, Day 8) was −2.25%, the “Platelet Count, Median” value (200 μg/kg, Day 8) was 242.0 thousands/mm^3 and the “Platelet Count, Median Change from Baseline” value (200 μg/kg, Day 8) was 1.0 thousands/mm^3. For the same substance, the “WBC, Median” value (200 μg/kg, Day 8) was 6.65 thousands/mm^3, the “WBC, Median Change from Baseline” value (200 μg/kg, Day 8) was 0.35 thousands/mm^3 and the “Absolute Neutrophils, Median” value (200 μg/kg, Day 20) was 3.80 thousands/mm^3. For the same substance, the “Absolute Neutrophils, Median Change from Baseline” value (200 μg/kg, Day 20) was 0.20 thousands/mm^3, the “Hematocrit, Median” value (200 μg/kg, Day 20) was 43.80% and the “Hematocrit, Median Change from Baseline” value (200 μg/kg, Day 20) was −1.50%. For the same substance, the “Hemoglobin, Median” value (200 μg/kg, Day 20) was 14.50 g/dL, the “Hemoglobin, Median Change from Baseline” value (200 μg/kg, Day 20) was -0.70 g/dL and the “Lymphocytes, Median” value (200 μg/kg, Day 20) was 31.50%. For the same substance, the “Lymphocytes, Median Change from Baseline” value (200 μg/kg, Day 20) was −1.80%, the “Platelet Count, Median” value (200 μg/kg, Day 20) was 250.0 thousands/mm^3 and the “Platelet Count, Median Change from Baseline” value (200 μg/kg, Day 20) was −5 thousands/mm^3. For the same substance, the “WBC, Median” value (200 μg/kg, Day 20) was 6.20 thousands/mm^3, the “WBC, Median Change from Baseline” value (200 μg/kg, Day 20) was 0.40 thousands/mm^3 and the WBC concentration (300 ug/kg group, at 20 days) was “relative increase”. For the same substance, the “Absolute Eosinophils shift H-N” value [3] was “— (“—” = 0)”, the “Absolute Eosinophils shift L-N” value [3] was “— (“—” = 0)” and the “Absolute Eosinophils shift N-H” value [3] was “— (“—” = 0)”. For the same substance, the “Absolute Eosinophils shift N-L” value [3] was “— (“—” = 0)”, the “Absolute Reticulocytes shift H-N” value [3] was “— (“—” = 0)” and the “Absolute Reticulocytes shift L-N” value [3] was “— (“—” = 0)”. The “Absolute Reticulocytes shift N-H” value [3] was 1, the “Absolute Reticulocytes shift N-L” value [3] was “— (“—” = 0)” and the “Eosinophils shift H-N, number of subjects” value [3] was 1.
